Test results: article PMC1635313

Biological target: T1, CRP (cAMP receptor protein, CAP) (Escherichia coli) (UniProt P0ACJ8)
T1 sequence: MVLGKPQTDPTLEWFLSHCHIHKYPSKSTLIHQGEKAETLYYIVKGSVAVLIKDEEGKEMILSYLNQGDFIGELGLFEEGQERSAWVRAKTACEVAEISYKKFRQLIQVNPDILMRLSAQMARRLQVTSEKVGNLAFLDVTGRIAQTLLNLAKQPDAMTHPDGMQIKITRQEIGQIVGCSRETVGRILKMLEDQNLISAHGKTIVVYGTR
Assay: EMSA

With “GCACGACAGGTTTCCCGACTGGAAAGCGGGCAGTGAGCGCAACGCAATTAATGTGAGTTAGCTCACTCATTAGGCACCCCAGGCTTTACACTTTATGCTTCCGGCTCGTATGTTGTGTGGAATTGTG (double strand) [lacZ promoter fragment]” the binding was “binds”.
With “CCAGGTTTCCCAGCACTTTTAATCTGGCGGTTAATGCGACTCCGGCATCCGGTGAAACATCCGGTAAAGGATGCAATACGCCGTCGATACGCAAGCGGATGCGGTAGGC (double strand) [hofB coding fragment]” the binding was “no binding”.
